Data published in article PMC2114792 (The Journal of Cell Biology, 1987).

Biological target: the molecule itself
Test: rotary shadowing electron microscopy

B1: chicken hexabrachion protein (myotendinous (M1) antigen) (natural protein, UniProt P10039 34-1808, looked up)
chain: ETGLNVTLPEDNQPVVFNHVYNIKLPVGSLCSVDLDTASGDADLKAEIEPVKNYEEHTVNEGNQIVFTHRINIPRRACGCAAAPDIKDLLSRLEELEGLVSSLREQCASGAGCCPNSQTAEGRLDTAPYCSGHGNYSTEICGCVCEPGWKGPNCSEPACPRNCLNRGLCVRGKCICEEGFTGEDCSQAACPSDCNDQGKCVDGVCVCFEGYTGPDCGEELCPHGCGIHGRCVGGRCVCHEGFTGEDCNEPLCPNNCHNRGRCVDNECVCDEGYTGEDCGELICPNDCFDRGRCINGTCFCEEGYTGEDCGELTCPNNCNGNGRCENGLCVCHEGFVGDDCSQKRCPKDCNNRGHCVDGRCVCHEGYLGEDCGELRCPNDCHNRGRCINGQCVCDEGFIGEDCGELRCPNDCHNRGRCVNGQCECHEGFIGEDCGELRCPNDCNSHGRCVNGQCVCDEGYTGEDCGELRCPNDCHNRGRCVEGRCVCDNGFMGEDCGELSCPNDCHQHGRCVDGRCVCHEGFTGEDCRERSCPNDCNNVGRCVEGRCVCEEGYMGIDCSDVSPPTELTVTNVTDKTVNLEWKHENLVNEYLVTYVPTSSGGLDLQFTVPGNQTSATIHELEPGVEYFIRVFAILKNKKSIPVSARVATYLPAPEGLKFKSVRETSVQVEWDPLSISFDGWELVFRNMQKKDDNGDITSSLKRPETSYMQPGLAPGQQYNVSLHIVKNNTRGPGLSRVITTKLDAPSQIEAKDVTDTTALITWSKPLAEIEGIELTYGPKDVPGDRTTIDLSEDENQYSIGNLRPHTEYEVTLISRRGDMESDPAKEVFVTDLDAPRNLKRVSQTDNSITLEWKNSHANIDNYRIKFAPISGGDHTELTVPKGNQATTRATLTGLRPGTEYGIGVTAVRQDRESAPATINAGTDLDNPKDLEVSDPTETTLSLRWRRPVAKFDRYRLTYVSPSGKKNEMEIPVDSTSFILRGLDAGTEYTISLVAEKGRHKSKPTTIKGSTEEEPELGNLSVSETGWDGFQLTWTAADGAYENFVIQVQQSDNPEETWNITVPGGQHSVNVTGLKANTPYNVTLYGVIRGYRTKPLYVETTTGAHPEVGELTVSDITPESFNLSWTTTNGDFDAFTIEIIDSNRLLEPMEFNISGNSRTAHISGLSPSTDFIVYLYGISHGFRTQAISAAATTEAEPEVDNLLVSDATPDGFRLSWTADDGVFDSFVLKIRDTKRKSDPLELIVPGHERTHDITGLKEGTEYEIELYGVSSGRRSQPINSVATTVVGSPKGISFSDITENSATVSWTPPRSRVDSYRVSYVPITGGTPNVVTVDGSKTRTKLVKLVPGVDYNVNIISVKGFEESEPISGILKTALDSPSGLVVMNITDSEALATWQPAIAAVDNYIVSYSSEDEPEVTQMVSGNTVEYDLNGLRPATEYTLRVHAVKDAQKSETLSTQFTTGLDAPKDLSATEVQSETAVITWRPPRAPVTDYLLTYESIDGRVKEVILDPETTSYTLTELSPSTQYTVKLQALSRSMRSKMIQTVFTTTGLLYPYPKDCSQALLNGEVTSGLYTIYLNGDRTQPLQVFCDMAEDGGGWIVFLRRQNGKEDFYRNWKNYVAGFGDPKDEFWIGLENLHKISSQGQYELRVDLRDRGETAYAVYDKFSVGDAKTRYRLRVDGYSGTAGDSMTYHNGRSFSTFDKDNDSAITNCALSYKGAFWYKNCHRVNLMGRYGDNNHSQGVNWFHWKGHEYSIQFAEMKLRPSSFRNLEGRRKRA
- stoichiometry N: 6
